Results from patent publication US20260226503A1.

Columns and labels:
[1] = molecular target: AAV2 capsid (adeno-associated virus serotype 2) (UniProt P03135); assay: bind-and-elute chromatography, pure AAV2; bound at pH 7.0, eluted with PBS pH 2.0; ELISA
[2] = molecular target: AAV9 capsid (adeno-associated virus serotype 9); assay: bind-and-elute chromatography, pure AAV9; bound at pH 7.0, eluted with PBS pH 2.0; ELISA
[3] = molecular target: AAV2 capsid (adeno-associated virus serotype 2) (UniProt P03135); assay: bind-and-elute chromatography, pure AAV2; bound at pH 7.0, eluted with 0.2 M MgCl2 in citrate pH 2.2; ELISA
[4] = molecular target: AAV9 capsid (adeno-associated virus serotype 9); assay: bind-and-elute chromatography, pure AAV9; bound at pH 7.0, eluted with 0.2 M MgCl2 in citrate pH 2.2; ELISA

Sequence of AAV2 capsid (adeno-associated virus serotype 2) (P03135 whole entry, chain 1 of 3): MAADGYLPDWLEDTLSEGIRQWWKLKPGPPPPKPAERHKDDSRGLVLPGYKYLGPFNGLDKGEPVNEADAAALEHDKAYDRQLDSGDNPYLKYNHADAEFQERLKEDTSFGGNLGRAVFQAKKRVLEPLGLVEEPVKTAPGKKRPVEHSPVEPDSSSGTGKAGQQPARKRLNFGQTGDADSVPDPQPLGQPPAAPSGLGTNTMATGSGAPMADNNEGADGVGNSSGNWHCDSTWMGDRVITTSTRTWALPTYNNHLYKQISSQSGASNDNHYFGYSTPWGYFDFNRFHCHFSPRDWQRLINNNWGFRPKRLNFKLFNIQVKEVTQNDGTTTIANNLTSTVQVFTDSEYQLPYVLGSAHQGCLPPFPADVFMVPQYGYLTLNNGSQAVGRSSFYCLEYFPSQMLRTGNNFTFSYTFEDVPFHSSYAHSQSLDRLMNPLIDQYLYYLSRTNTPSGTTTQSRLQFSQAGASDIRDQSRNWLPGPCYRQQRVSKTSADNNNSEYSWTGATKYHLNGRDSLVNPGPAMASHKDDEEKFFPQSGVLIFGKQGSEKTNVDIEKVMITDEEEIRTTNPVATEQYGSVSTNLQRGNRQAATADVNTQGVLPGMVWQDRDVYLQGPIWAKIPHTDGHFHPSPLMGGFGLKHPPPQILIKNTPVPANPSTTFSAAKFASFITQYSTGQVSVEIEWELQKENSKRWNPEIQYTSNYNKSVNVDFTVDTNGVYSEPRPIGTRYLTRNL
Sequence of AAV2 capsid (adeno-associated virus serotype 2) (P03135 139-735, tags left off, chain 2 of 3): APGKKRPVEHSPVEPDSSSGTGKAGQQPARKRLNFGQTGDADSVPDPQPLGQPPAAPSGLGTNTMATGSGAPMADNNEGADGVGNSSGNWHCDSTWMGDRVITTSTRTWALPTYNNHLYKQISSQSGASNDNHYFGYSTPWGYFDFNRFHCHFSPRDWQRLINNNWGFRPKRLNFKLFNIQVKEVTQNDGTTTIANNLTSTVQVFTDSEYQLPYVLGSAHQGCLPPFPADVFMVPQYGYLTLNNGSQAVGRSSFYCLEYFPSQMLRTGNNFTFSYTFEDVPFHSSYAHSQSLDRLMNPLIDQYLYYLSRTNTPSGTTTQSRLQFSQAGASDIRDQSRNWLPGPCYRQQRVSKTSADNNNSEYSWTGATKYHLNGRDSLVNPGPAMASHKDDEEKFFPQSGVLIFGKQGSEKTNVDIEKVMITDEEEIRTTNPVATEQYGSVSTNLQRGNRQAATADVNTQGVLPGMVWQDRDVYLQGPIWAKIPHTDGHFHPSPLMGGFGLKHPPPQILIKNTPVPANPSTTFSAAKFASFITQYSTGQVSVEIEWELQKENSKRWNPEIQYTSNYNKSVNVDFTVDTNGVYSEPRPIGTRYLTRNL
Sequence of AAV2 capsid (adeno-associated virus serotype 2) (P03135 203-735, chain 3 of 3): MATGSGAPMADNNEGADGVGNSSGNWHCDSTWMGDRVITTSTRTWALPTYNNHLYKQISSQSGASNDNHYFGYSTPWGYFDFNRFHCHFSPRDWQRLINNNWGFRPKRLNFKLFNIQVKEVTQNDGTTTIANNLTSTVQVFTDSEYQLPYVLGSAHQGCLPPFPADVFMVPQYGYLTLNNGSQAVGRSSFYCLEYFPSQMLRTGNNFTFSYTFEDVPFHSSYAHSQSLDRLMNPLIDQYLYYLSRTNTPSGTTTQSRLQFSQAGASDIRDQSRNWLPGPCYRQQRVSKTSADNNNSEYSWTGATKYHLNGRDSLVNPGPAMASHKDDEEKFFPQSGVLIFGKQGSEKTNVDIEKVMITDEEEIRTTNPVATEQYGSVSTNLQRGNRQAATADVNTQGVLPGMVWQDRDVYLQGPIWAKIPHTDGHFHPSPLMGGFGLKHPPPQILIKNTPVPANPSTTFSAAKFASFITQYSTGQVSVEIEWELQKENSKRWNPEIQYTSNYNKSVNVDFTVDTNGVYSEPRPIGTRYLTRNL

| Substance | yield (AAV titer in elution fraction vs. load) [1] [%] | yield (AAV titer in elution fraction vs. load) [2] [%] | yield (AAV titer in elution fraction vs. load) [3] [%] | yield (AAV titer in elution fraction vs. load) [4] [%] |
| --- | --- | --- | --- | --- |
| AVB Sepharose HP resin (VHH) | 45.8 | 10.6 | – | – |
| POROS CaptureSelect AAVX Affinity resin (VHH) | – | – | 63.4 | 25.6 |
